Assay results from patent CN113817050A.

Biological target: 抗原(Biacore 8K表面等离子共振实验，未指明)
Test: SPR, Biacore 8K; antigen and format not given

B1: 抗SARS-CoV-2的单克隆抗体1H8 (antibody, V domains shown)
VH: EVQLVESGGGLVQPGGSLRLSCAASEITVSSNYMNWVRQAPGKGLEWVSVIYSGGTTYYADSVKGRFTISRDNSENTLYLQMNSLRAEDTAVYYCARDLMEVGGMDVWGQGTTVTVSS
VL: DIVMTQSPSSLSASVGDRVTITCRASQGVSNYLAWYQQKPGKVPKLLIYAASTLQSGVPSRFSGSRSGTDFTLTISSLQPEDVATYYCQNYNSAPFAFGPGTKVEIK
Which Kd does the source give for B1 here?
The Kd was 18.7 nM.

What about the koff of the same binder?
Its koff is 0.00138 s⁻¹.

What about the kon of the same binder?
Its kon is 73600 M⁻¹ s⁻¹.
